Results published in US8703907B2, “Controlled drug release from dendrimers” (Prolynx LLC, priority 2010, dated 2014).

Key:
[1] = in vivo; cited from earlier work
[2] = β-eliminative cleavage of DNP-Lys carbamates (HPLC); assay type: physicochemical; conditions: after 5 days at 37° C. and pH 7.4
Protocol: A series of model linker scaffolds having a range of functional groups as potential pKa modulators (substituted aromatics, ketones, nitriles, sulfones) were designed, prepared and linked via carbamate bonds to Ne-2,4-dinitrophenyl-L-lysine (Ne-DNP-Lys) for evaluation of release rates; DNP-Lys is water soluble and is a strong chromophore to permit HPLC-UV analysis. Rates of release at pH 7.4 and/or 8.3 were determined.
The DNP carbamates were prepared as follows. A suspension of N-DNP-L-Lys HCl (35 mg, 0.1 mmol) in 600 μL of water was treated successively with 1.0 N NaOH (200 μL) and 1.0 M NaHCO3. A 0.1 M solution of the N—HS carbonate in acetonitrile (1.0 mL) was added to the stirred mixture to give a clear yellow solution. After 1 hr, the mixture was diluted with 10 mL water and loaded onto a Bond-Elut™ C18 extraction column (1 gm). The column was washed successively with water, 1% CF3CO2H/water, water, and 50% MeOH/water. The product was eluted with MeOH, then evaporated to give the product as a yellow glass. Kinetic analyses were performed by HPLC (C18; linear MeOH/water+0.5% HOAc gradient) using a UV/vis monitor. The areas under the DNP and starting material peaks were integrated to determine extent of reaction.
The half-lives for cleavage span 2 hr to >10 days. […]

[3] = hydrolysis of carbamate in 50% human serum; assay type: in vitro ADME; conditions: 1 week at 37° C.
Description: The half-lives for cleavage span 2 hr to >10 days. […] In general, compared to C—H, a) electron withdrawing groups at R^1 increase the rate; b) alkyl groups at R^3 increase the rate; and c) aryl moieties at R^3 decrease the rate.

[4] = target: T1, GLP1 receptor (Rattus norvegicus, UniProt P32301); assay: GLP1 receptor agonism in membrane or cell-based assays after β-eliminative release; conditions: native exendin released by mild base
T1 construct: in membrane or cell-based assays (e.g., RIN-m5f cells, ATCC); host or cells: RIN-m5f cells
T1 sequence (P32301 22-463): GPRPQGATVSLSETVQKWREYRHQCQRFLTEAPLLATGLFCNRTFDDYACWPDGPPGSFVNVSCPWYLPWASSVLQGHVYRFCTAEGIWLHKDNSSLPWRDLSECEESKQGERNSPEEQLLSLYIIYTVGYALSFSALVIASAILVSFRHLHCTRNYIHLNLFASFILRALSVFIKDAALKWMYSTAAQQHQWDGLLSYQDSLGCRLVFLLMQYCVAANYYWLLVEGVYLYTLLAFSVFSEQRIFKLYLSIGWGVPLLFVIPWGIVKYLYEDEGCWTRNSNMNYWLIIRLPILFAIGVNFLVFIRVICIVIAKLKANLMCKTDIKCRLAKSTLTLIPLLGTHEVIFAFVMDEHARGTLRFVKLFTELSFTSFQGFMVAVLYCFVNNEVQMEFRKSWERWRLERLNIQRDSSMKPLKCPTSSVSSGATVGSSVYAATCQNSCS
Protocol: The PEG and PEG-dendrimer conjugates are tested as agonists of the GLP1 receptor in membrane or cell-based assays (e.g., RIN-m5f cells, ATCC as described (Young, A., et al., (2000) WO00/66629) pages 74-75) before and after β-eliminative release of native exendin.

[5] = tested on: plasma proteases; conditions: cited from earlier work

## GLP-1: glucagon-like peptide 1
[1]
  plasma lifetime: ~5 min

## O=C(N[C@@H](CCCCNc1ccc([N+](=O)[O-])cc1[N+](=O)[O-])C(=O)O)OCc1ccccc1 [O-benzyl-N—(Ne-2,4-DNP-Lys) carbamate]
[2]
  cleavage: less than 0.25%
[3]
  hydrolysis in 50% human serum: no detectable hydrolysis

## Exendin-4: 39-amino acid peptide from the Gila monster, agonist of the GLP-1 receptor
[4]
  activity as GLP1 agonists: full activity
[1]
  half-life: 2.5 h
[5]
  t1/2 against plasma proteases in vitro: ~10 h
